Data from US20140113348A1.

Target: meditope-enabled trastuzumab Fab fragment
Experiment: SPR; meditope alone on the Fab fragment, not IgG

Sequence of meditope-enabled trastuzumab Fab fragment (chain, as listed by the source limits assumed, chain 1 of 2): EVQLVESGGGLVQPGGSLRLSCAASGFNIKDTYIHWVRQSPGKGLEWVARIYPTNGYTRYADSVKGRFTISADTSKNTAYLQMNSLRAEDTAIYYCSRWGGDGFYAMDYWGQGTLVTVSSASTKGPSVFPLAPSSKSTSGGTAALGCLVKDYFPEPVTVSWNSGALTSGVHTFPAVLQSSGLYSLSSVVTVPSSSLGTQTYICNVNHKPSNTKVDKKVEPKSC
Sequence of meditope-enabled trastuzumab Fab fragment (chain, as listed by the source limits assumed, chain 2 of 2): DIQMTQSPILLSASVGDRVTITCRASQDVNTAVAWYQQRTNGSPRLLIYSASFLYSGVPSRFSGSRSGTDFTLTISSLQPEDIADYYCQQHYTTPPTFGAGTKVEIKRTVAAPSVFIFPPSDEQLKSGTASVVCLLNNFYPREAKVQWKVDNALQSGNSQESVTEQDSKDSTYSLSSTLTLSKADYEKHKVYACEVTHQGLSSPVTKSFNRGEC

- Kd: 1000 nM
Binder: CQFDLSTRRLKC (modifications not checked) [cQFD meditope (cyclic …)]
